# Source: PMC11357561, “Efficient 2,3-Butanediol Production from Ethanol by a Modified Four-Enzyme Synthetic Biosystem” (Molecules, 2024)
# How the values were obtained:
# Test in all cases: acetoin formation, Voges-Proskauer test, Michaelis-Menten fit
# Settings in all cases: 100 mM phosphate pH 8.0, 0.1 mM TPP, 1 mM Mg2+, 2-600 mM acetaldehyde
# [1] = test system: T1, CC=O; format: biochemical, Pseudomonas fluorescens
# T1 construct: computationally designed formolase derived from benzaldehyde lyase; pET28a, E. coli BL21(DE3), Ni-NTA His-tag purified
# Source text: (§1) acetoin formation, Voges-Proskauer test, Michaelis-Menten fit on formolase (FLS)
# [2] = molecular target: T2, formolase (FLS) (Pseudomonas fluorescens, UniProt Q9F4L3, A28I/W89R/L90T/R188H/A394G/G419N/A480W/L482E); format: biochemical
# T2 construct: gene bznB; computationally designed formolase derived from benzaldehyde lyase; pET28a, E. coli BL21(DE3), Ni-NTA His-tag purified
# T2 sequence (Q9F4L3 1-563 A28I/W89R/L90T/R188H/A394G/G419N/A480W/L482E): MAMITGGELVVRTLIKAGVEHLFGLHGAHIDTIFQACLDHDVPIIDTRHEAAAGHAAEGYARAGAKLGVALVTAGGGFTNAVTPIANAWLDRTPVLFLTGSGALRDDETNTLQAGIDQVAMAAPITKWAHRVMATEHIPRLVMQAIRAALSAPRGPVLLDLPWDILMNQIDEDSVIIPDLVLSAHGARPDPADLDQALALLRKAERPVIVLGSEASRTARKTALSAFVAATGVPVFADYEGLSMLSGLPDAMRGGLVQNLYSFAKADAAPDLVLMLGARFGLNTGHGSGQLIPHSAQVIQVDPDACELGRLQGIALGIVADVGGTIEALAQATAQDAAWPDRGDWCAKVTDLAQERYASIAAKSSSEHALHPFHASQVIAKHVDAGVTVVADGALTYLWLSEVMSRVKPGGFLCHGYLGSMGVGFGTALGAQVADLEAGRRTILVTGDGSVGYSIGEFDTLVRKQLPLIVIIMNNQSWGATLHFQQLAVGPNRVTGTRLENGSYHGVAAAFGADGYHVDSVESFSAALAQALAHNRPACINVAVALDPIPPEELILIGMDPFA
# Source text: as §1
# [3] = molecular target: T3, formolase (FLS) (Pseudomonas fluorescens, UniProt Q9F4L3, A28I/W89R/L90T/R188H/A394G/G419N/A480W); format: biochemical
# T3 construct: gene bznB; computationally designed formolase derived from benzaldehyde lyase; pET28a, E. coli BL21(DE3), Ni-NTA His-tag purified
# T3 sequence (Q9F4L3 1-563 A28I/W89R/L90T/R188H/A394G/G419N/A480W): T2 sequence (Q9F4L3 1-563 A28I/W89R/L90T/R188H/A394G/G419N/A480W/L482E)
# Source text: as §1
Compound,Km [1] [mM],kcat [1] [s⁻¹],kcat/Km [1] [M⁻¹ s⁻¹],Km [2] [mM],Km [3] [mM]
formolase (FLS) (Pseudomonas fluorescens; A28I/A394G/A480W/F484A/G419N/L90T/R188H/W89R),53.28 ± 2.52,1.74 ± 0.12,32.6,–,–
formolase (FLS) (Pseudomonas fluorescens; A28V/A394G/A480W/G419N/L90T/R188H/W89R),81.95 ± 3.61,3.33 ± 0.21,40.6,–,–
CC=O [acetaldehyde],–,–,–,50.9 ± 3.22,58.5 ± 2.32
